Molecular target: insulin (fully disulfide-bonded heterodimeric insulin)

Protein | activity in the insulin assay as compared to unreacted reduced C35STRX | insulin disulfide bond reduction activity
Azido-C35STRX (C35STRX with azido-PEG linkers on Lys residues, reduced) (protein) MVKQIESKTAFQEALDAAGDKLVVVDFSATWCGPSKMIKPFFHSLSEKYSNVIFLEVDVDDCQDVASECEVKCMPTFQFFKKGQKVGEFSGANKEKLEATINELV | the conjugated material retained about 33% of its activity in the insulin assay as compared to unreacted reduced C35STRX | 
native human thioredoxin-1 (TRX) (protein) MVKQIESKTAFQEALDAAGDKLVVVDFSATWCGPCKMIKPFFHSLSEKYSNVIFLEVDVDDCQDVASECEVKCMPTFQFFKKGQKVGEFSGANKEKLEATINELV |  | GSH is capable of restoring insulin disulfide bond reduction activity to oxidized TRX (FIG. 1)
